Results from patent publication US11137400.
Residue numbers refer to the chain shown, from its start.

Experiments:
[1] = test system: T1, Affinity-purified GST-tagged wild type (WT) hXBP1s
T1 sequence: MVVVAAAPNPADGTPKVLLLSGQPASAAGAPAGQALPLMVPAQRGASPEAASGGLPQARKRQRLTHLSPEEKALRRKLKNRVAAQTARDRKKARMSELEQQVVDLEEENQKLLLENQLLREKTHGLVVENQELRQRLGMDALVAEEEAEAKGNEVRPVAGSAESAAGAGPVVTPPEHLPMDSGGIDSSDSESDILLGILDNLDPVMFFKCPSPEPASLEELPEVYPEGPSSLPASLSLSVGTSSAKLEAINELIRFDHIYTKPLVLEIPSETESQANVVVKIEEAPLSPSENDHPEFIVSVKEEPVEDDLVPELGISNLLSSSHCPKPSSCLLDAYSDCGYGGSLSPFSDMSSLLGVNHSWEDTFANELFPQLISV

[2] = test system: T2, Affinity-purified GST-tagged hXBP1s S288A mutant
T2 sequence: T1 sequence with S288A

Substance: Active recombinant human JNK2α2 (Millipore)
- in vitro kinase assay, phosphorylation in the presence of ^32P (autoradiography) [1]: JNK1, JNK2 or JNK3 was sufficient to directly phosphorylate hXBP1s
- in vitro kinase assay, phosphorylation in the presence of ^32P (autoradiography) [2]: mutation of Ser288 to A abolished JNKs-mediated phosphorylation of hXBP1s
